These results are taken from paper PMC10572602, “Molecular Mechanism of STIL Coiled-Coil Domain Oligomerization” (International Journal of Molecular Sciences, 2023).

No end group written: not given here.

The target of series [1] is PLK4 884-970 (Homo sapiens) (UniProt O00444). Briefly: ITC. The note with it: cited from earlier work.
In series [2] the target is STIL CCD_(718–749) L736E. Briefly: crystal structure; L736E crystallized at 0.9 mM peptide, 50 mM Tris pH 8.0, 10% v/v MPD, 4 °C; 1.67 Å.
Series [3] deals with Stil−/− mouse embryonic fibroblasts. The note with it: full-length STIL expressed in Stil−/− mouse embryonic fibroblasts; ref [14]; cited from earlier work. An excerpt: Presumably, this is due to the disruption of the hydrophobic CC interactions upon mutation from the hydrophobic Leu to the charged Glu. […] Other ...
Series [4] concerns the molecule itself. Briefly: AUC; sedimentation equilibrium, starting concentrations 5, 10 and 20 µM, unlabelled peptide, no DMSO; 20 °C, sodium phosphate pH 6.8 with NaCl; fitted to a single ideal species (N) and, for the WT, to a dimer-tetramer model (apparent KD: tetramer to dimers).
Series [5] deals with the molecule itself. As to the kind of experiment: AUC; sedimentation velocity, 500 µM peptide, c(s) distribution; 20 °C, 25 mM sodium phosphate pH 6.8, ionic strength 154 mM (NaCl).
For series [6], the target named is T1, STIL CCD peptide with a different fluorophore (fluorescence polarization) (a fluorophore other than the coumarin, not named, position not stated; C-terminal amide).
T1 construct: STIL coiled-coil domain, residues 718-749; also called same STIL CCD peptide and different fluorophore; source: synthetic peptide
T1 peptide: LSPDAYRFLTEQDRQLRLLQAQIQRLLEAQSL
As to the kind of experiment: fluorescence polarisation; same STIL CCD peptide with a different fluorophore; Hill fit; dimer to monomers. Particulars: both partners purified. (In general: Fluorescence polarisation rises when a labelled molecule tumbles more slowly, as on binding a larger partner.)

Series [7] concerns the molecule itself. As to the kind of experiment: AUC; sedimentation velocity, 10 µM peptide, c(s) distribution; 20 °C, 25 mM sodium phosphate pH 6.8, ionic strength 154 mM (NaCl).
Series [8] concerns the molecule itself. Briefly: AUC; sedimentation velocity, 75 µM peptide, c(s) distribution; 20 °C, 25 mM sodium phosphate pH 6.8, ionic strength 154 mM (NaCl).
Series [9] concerns the molecule itself. Briefly: AUC; sedimentation velocity, 12.5 µM peptide, c(s) distribution; 20 °C, 25 mM sodium phosphate pH 6.8, ionic strength 154 mM (NaCl).
Series [10] concerns the target T2, WT STIL CCD peptide labelled with 7-(Diethylamino)coumarin-3-carboxylic acid (7-(Diethylamino)coumarin-3-carboxylic acid on the N-terminus; C-terminal amide).
T2 construct: STIL coiled-coil domain, residues 718-749; also called labeled-WT CCD; fluorophore-labelled peptide; source: synthetic peptide (Fmoc-SPPS, fluorophore coupled on the resin, RP-HPLC purified)
T2 peptide: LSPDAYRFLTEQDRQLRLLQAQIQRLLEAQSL
Briefly: other fluorescence titration; fluorescence read on a Monolith NT.115 (micro-scale thermophoresis instrument); 5 µM coumarin-labelled peptide with unlabelled peptide 9 nM to 300 µM; 25 mM sodium phosphate pH 6.8, ionic strength 154 mM (NaCl), 5% DMSO, room temperature (24 °C); Hill fit; apparent; taken by the paper as dimer to monomers. The note with it: both partners purified.

Series [11] concerns the molecule itself. Briefly: AUC; sedimentation equilibrium, starting concentrations 5, 10 and 20 µM, unlabelled peptide, no DMSO; 20 °C, sodium phosphate pH 6.8 with NaCl; fitted to a single ideal species (N) and, for the WT, to a dimer-tetramer model (apparent KD: tetramer to dimers). This is another data set of the same source.

Sequence of PLK4 884-970 (Homo sapiens) (O00444 884-970): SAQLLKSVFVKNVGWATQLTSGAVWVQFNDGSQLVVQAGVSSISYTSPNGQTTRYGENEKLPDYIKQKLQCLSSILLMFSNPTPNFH

As for STIL CCD (from UniProt Q15468), the Kd in [1] is 0.28 µM.
Turning to STIL CCD_(718–749) L736E (peptide), the stoichiometry N (as a rule, the number of molecules, sites or subunits per partner or assembly) in series [2] amounted to 2.

B1: WT STIL: full-length wild-type STIL protein (protein, UniProt Q15468 1-1287, looked up)
chain: MEPIYPFARPQMNTRFPSSRMVPFHFPPSKCALWNPTPTGDFIYLHLSYYRNPKLVVTEKTIRLAYRHAKQNKKNSSCFLLGSLTADEDEEGVTLTVDRFDPGREVPECLEITPTASLPGDFLIPCKVHTQELCSREMIVHSVDDFSSALKALQCHICSKDSLDCGKLLSLRVHITSRESLDSVEFDLHWAAVTLANNFKCTPVKPIPIIPTALARNLSSNLNISQVQGTYKYGYLTMDETRKLLLLLESDPKVYSLPLVGIWLSGITHIYSPQVWACCLRYIFNSSVQERVFSESGNFIIVLYSMTHKEPEFYECFPCDGKIPDFRFQLLTSKETLHLFKNVEPPDKNPIRCELSAESQNAETEFFSKASKNFSIKRSSQKLSSGKMPIHDHDSGVEDEDFSPRPIPSPHPVSQKISKIQPSVPELSLVLDGNFIESNPLPTPLEMVNNENPPLINHLEHLKPLQPQLYDEKHSPEVEAGEPSLRGIPNQLNQDKPALLRHCKVRQPPAYKKGNPHTRNSIKPSSHNGPSHDIFEKLQTVSAGNVQNEEYPIRPSTLNSRQSSLAPQSQPHDFVFSPHNSGRPMELQIPTPPLPSYCSTNVCRCCQHHSHIQYSPLNSWQGANTVGSIQDVQSEALQKHSLFHPSGCPALYCNAFCSSSSPIALRPQGDMGSCSPHSNIEPSPVARPPSHMDLCNPQPCTVCMHTPKTESDNGMMGLSPDAYRFLTEQDRQLRLLQAQIQRLLEAQSLMPCSPKTTAVEDTVQAGRQMELVSVEAQSSPGLHMRKGVSIAVSTGASLFWNAAGEDQEPDSQMKQDDTKISSEDMNFSVDINNEVTSLPGSASSLKAVDIPSFEESNIAVEEEFNQPLSVSNSSLVVRKEPDVPVFFPSGQLAESVSMCLQTGPTGGASNNSETSEEPKIEHVMQPLLHQPSDNQKIYQDLLGQVNHLLNSSSKETEQPSTKAVIISHECTRTQNVYHTKKKTHHSRLVDKDCVLNATLKQLRSLGVKIDSPTKVKKNAHNVDHASVLACISPEAVISGLNCMSFANVGMSGLSPNGVDLSMEANAIALKYLNENQLSQLSVTRSNQNNCDPFSLLHINTDRSTVGLSLISPNNMSFATKKYMKRYGLLQSSDNSEDEEEPPDNADSKSEYLLNQNLRSIPEQLGGQKEPSKNDHEIINCSNCESVGTNADTPVLRNITNEVLQTKAKQQLTEKPAFLVKNLKPSPAVNLRTGKAEFTQHPEKENEGDITIFPESLQPSETLKQMNSMNSVGTFLDVKRLRQLPKLF
modifications: full-length
notes: full-length wild-type STIL protein
As for B1, the “formation of centrosomes and cilia (in words)” value in series [3] is recorded as “rescues this phenotype”.

B2: STIL CCD_(718–749) WT (peptide)
peptide: LSPDAYRFLTEQDRQLRLLQAQIQRLLEAQSL-NH2
notes: STIL (SCL/TAL1 Interrupting Locus) coiled-coil domain, residues 718-749; 32-residue peptide, unlabelled; also called WT STIL CCD peptide; WT CCD; source: synthetic peptide (Fmoc-SPPS on rink amide, RP-HPLC purified)
B2: the Kd is 68 ± 2 µM in series [4], 8.5 ± 0.4 µM in series [6] and 8 ± 2 µM in [10]. For the same molecule, the “stoichiometry N” value worked out at 3.4 × monomer mass in [5]; 1.7 in series [7]; 3.27 × monomer mass in series [8]; 2 × monomer mass in series [9]; 2.9 ± 0.04 in series [11].
